Source: patent CN114409782A (HUAI SHANGHAI BIOMEDICINE LTD COMPANY, dated 2022)
Substitutions are numbered along the chain they refer to.

B1: 抗IL13Ra2纳米抗体VHH-1 (VHH-mIgG2a Fc) (Fc fusion)
chain: QVQLVESGGGLVQPGGSLRLSCAASGFTLDYYAIAWFRQAPGKRREGVSCISSSEGSTNYADSVKGRFTISRDNAKNTVYLQMNSLKPEDTAVYYCAADSTGRCWARPLYEYDYRGQGTQVTVSS
notes: not shown: mouse IgG2a Fc tag from vector C-4pCP.Stuffer-mCg2a-FC
B2: 抗IL13Ra2纳米抗体VHH-13 (VHH-mIgG2a Fc) (Fc fusion)
chain: B1 chain with L11S, P14A, A23T, A24S, G26R
notes: as for B1
B3: 抗IL13Ra2纳米抗体VHH-7 (VHH-mIgG2a Fc) (Fc fusion)
chain: QVQLVESGGGLAHPGGRLRVTCTASGANLKNYAVGWFRQRPGKQREEVACLRVRYANTNKAPSVRERVHVFREENNNLVYMLMSDLTPEDTGIYYCAARPQQPSADCSLLANDYDNWGQGIQVTVSE
notes: as for B1

Biological target: T1, IL13Ra2抗原 (in solution, Biacore) (UniProt Q14627 27-343, limits assumed)
T1 construct: also called IL13Rα2; 白介素13受体α2
T1 sequence (looked up): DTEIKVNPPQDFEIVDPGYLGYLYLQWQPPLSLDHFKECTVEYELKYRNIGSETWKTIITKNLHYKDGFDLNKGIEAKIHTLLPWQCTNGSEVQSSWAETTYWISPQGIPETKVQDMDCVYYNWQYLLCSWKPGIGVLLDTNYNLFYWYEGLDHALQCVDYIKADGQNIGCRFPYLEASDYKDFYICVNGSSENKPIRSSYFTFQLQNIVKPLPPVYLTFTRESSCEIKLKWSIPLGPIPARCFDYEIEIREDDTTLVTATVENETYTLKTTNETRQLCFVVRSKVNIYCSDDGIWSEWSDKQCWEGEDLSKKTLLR
Assay: SPR (Biacore), antibody fixed on chip, IL13Ra2 in solution

Binder	Kd [nM]	koff [s⁻¹]	kon [M⁻¹ s⁻¹]
B1	16.1	0.00156	55300
B2	16.6	0.00433	68300
B3	32.4	0.00066	65400
